Measurements reported in publication PMC10746525.

B1: MBP-TRAK1_(342-431) [human] / MIRO1_(177-591) [human] (parent)
chain 1: EAQEELKNLRNKTMPNTTSRRYHSLGLFPMDSLAAEIEGTMRKELQLEEAESPDITHQKRVFETVRNINQVVKQRSLTPSPMNIPGSNQS
chain 2: EEKEMKPACIKALTRIFKISDQDNDGTLNDAELNFFQRICFNTPLAPQALEDVKNVVRKHISDGVADSGLTLKGFLFLHTLFIQRGRHETTWTVLRRFGYDDDLDLTPEYLFPLLKIPPDCTTELNHHAYLFLQSTFDKHDLDRDCALSPDELKDLFKVFPYIPWGPDVNNTVCTNERGWITYQGFLSQWTLTTYLDVQRCLEYLGYLGYSILTEQESQASAVTVTRDKKIDLQKKQTQRNVFRCNVIGVKNCGKSGVLQALLGRNLMRQKKIREDHKSYYAINTVYVYGQEKYLLLHDISESEFLTEAEIICDVVCLVYDVSNPKSFEYCARIFKQHFMDSRIPCLIVAAKSDLHEVKQEYSISPTDFCRKHKMPPPQAFTCNTADAPSKDIFVKLTTMAMYPHVTQADLKSST
B2: MBP-TRAK1_(342-431) [human] / MIRO1_(177-591) [human] (parent)
chain 1: B1 chain 2
chain 2: B1 chain 1

Tests used:
MIRO1_(177-591) [human] [1] = variants of: B1; assay: ITC; settings: with MIRO1_(177-591) [human]; 370 µM MBP-TRAK1(342-431) 400KR401 to AA in syringe, 30 µM MIRO1(177-591) in cell; ITC buffer with 5 mM EGTA
MIRO1_(177-591) [human] [2] = variants of: B2; assay: ITC; settings: with MIRO1_(177-591) [human]; 370 µM MIRO1(177-591) in syringe, 35 µM MBP-TRAK1(342-431) 400KR401 to AA in cell; ITC buffer with 5 mM EGTA

Kd (MIRO1_(177-591) [human] [1]) [µM]	screen value (MIRO1_(177-591) [human] [1])	Kd (MIRO1_(177-591) [human] [2]) [µM]	screen value (MIRO1_(177-591) [human] [2])	Variant
9.62	0.91			chain 1 K59A R60A
		7.52	0.74	chain 2 K59A R60A
